Source: PMC11315836

Molecular target: Recombinant hG-CSFR (granulocyte colony stimulating factor receptor) (human) (UniProt Q99062)
Test: SPR

UniProt Q99062, sequence (Q99062 25-836): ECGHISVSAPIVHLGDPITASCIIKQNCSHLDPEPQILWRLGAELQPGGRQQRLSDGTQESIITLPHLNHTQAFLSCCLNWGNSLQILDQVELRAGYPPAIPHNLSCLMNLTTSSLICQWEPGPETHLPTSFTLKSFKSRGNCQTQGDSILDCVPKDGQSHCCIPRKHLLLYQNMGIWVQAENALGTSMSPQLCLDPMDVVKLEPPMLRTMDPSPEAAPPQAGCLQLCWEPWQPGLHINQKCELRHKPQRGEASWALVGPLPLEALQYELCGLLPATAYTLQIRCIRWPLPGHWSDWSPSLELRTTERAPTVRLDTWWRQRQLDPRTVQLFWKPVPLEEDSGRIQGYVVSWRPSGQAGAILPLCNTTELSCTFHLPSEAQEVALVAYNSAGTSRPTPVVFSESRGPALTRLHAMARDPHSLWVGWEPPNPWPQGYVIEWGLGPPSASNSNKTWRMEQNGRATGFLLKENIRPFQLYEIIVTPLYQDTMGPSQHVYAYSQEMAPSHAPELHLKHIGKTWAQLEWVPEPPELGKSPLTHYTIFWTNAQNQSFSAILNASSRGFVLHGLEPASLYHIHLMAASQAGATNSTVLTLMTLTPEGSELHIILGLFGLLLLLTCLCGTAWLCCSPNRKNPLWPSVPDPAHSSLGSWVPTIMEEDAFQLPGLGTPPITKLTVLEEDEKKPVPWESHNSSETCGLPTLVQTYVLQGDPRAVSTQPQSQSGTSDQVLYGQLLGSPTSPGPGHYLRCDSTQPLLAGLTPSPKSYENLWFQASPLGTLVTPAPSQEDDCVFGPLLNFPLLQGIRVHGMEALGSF

Kd: 0.097 nM
Substance: pegfilgrastim (Neulasta), reference product (from UniProt P09919-2 31-204) (ligand)
